This note sets out measurements from patent US20220204643A1 (published 2022).

Read-outs that look alike come from different tables or passages of the source.

The target in assay [1] is T1, influenza virus NS1A binding protein (human, UniProt Q9Y6Y0 1-642).
T1 construct: on protein array; also called IVNS1ABP
T1 sequence: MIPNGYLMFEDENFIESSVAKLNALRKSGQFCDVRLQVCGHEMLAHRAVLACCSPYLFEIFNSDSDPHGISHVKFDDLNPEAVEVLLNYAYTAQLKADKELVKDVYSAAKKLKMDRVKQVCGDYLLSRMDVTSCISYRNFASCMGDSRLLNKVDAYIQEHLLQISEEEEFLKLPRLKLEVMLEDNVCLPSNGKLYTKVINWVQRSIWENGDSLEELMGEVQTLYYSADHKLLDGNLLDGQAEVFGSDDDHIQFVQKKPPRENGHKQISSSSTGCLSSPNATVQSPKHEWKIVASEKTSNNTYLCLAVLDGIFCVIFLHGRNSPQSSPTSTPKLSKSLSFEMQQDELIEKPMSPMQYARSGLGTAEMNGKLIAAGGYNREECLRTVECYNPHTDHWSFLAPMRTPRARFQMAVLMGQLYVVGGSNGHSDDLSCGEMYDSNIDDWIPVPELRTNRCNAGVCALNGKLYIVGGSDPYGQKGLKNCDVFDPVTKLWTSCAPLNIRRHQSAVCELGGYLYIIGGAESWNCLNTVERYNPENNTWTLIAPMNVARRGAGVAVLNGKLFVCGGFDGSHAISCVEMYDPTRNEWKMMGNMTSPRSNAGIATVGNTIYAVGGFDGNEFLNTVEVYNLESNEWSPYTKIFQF
Kind of assay: protein array.

In assay [2] the target is T2, kelch like ECH associated protein 1, transcript variant 1 (human, UniProt Q14145 1-624).
T2 construct: on protein array; also called KEAP1
T2 sequence (Q14145 whole entry, change not shown): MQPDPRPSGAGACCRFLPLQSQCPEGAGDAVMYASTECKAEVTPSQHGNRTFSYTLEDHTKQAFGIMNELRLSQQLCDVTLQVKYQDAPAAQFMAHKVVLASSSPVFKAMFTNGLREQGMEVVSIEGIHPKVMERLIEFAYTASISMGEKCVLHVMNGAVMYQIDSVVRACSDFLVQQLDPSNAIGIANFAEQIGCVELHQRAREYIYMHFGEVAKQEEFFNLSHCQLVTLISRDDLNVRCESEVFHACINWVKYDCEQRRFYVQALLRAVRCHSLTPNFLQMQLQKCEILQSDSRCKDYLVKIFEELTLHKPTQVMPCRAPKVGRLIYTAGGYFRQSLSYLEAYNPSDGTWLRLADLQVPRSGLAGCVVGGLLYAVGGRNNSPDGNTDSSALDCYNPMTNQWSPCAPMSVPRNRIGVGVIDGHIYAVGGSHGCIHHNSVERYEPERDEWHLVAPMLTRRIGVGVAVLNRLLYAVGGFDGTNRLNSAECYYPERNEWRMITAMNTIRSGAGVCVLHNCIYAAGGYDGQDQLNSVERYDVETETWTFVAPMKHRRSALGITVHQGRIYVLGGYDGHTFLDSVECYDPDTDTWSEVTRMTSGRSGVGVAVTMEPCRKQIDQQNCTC
Nature of the assay: protein array.

The target in assay [3] is T3, quinoid dihydropteridine reductase, transcript variant 1 (human, UniProt P09417 2-244).
T3 construct: on protein array; also called QDPR
T3 sequence: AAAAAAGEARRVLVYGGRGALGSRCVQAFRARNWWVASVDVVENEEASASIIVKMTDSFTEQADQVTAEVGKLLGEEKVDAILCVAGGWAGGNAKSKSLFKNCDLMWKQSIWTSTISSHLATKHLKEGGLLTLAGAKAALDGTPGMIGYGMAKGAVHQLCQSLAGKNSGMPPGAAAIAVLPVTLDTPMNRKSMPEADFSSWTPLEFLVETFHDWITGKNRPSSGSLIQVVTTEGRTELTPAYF
Nature of the assay: protein array.

Assay [4] has as its target T4, quinoid dihydropteridine reductase, transcript variant 1 (human, UniProt P09417 2-244).
T4 construct: HuProt array protein, full-length recombinant from yeast; also called QDPR
T4 sequence: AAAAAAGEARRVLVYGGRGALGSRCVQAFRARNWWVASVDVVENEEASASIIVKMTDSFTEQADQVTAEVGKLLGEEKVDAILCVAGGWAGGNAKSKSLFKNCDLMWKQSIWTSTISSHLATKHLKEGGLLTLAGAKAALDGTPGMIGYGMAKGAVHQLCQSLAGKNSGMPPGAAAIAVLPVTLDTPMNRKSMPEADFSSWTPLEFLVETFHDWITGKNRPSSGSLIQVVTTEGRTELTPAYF

A further assay concerns the target T5, DEAD-box helicase 53 (human, UniProt Q86TM3 1-631).
T5 construct: also called DDX53

In assay [5] the target is T6, ubiquilin 1, transcript variant 2 (human, UniProt Q9UMX0 2-589).
T6 construct: HuProt array protein, full-length recombinant from yeast; also called UBQLN1
T6 sequence (Q9UMX0 other isoform, or with tags, fused parts or gaps mutant limits assumed): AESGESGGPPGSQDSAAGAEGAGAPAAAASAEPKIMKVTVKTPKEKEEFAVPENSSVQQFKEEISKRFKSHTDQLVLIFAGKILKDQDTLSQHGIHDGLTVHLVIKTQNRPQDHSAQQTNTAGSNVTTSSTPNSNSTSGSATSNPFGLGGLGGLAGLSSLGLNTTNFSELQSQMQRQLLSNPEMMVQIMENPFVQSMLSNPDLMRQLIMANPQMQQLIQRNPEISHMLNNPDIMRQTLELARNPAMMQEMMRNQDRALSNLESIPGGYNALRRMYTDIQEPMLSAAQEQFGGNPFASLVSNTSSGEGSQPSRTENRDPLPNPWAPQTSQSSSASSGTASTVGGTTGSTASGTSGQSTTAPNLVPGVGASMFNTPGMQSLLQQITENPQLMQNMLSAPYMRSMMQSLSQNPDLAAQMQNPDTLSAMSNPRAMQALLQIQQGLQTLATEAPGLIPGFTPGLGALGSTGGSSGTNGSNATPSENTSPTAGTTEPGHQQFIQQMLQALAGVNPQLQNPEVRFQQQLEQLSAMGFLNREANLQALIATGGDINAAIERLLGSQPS

The target of assay [6] is T7, ubiquilin 1, transcript variant 2 (human, UniProt Q9UMX0 2-589).
T7 construct: on protein array; also called UBQLN1
Kind of assay: protein array.
T7 sequence (Q9UMX0 other isoform, or with tags, fused parts or gaps mutant limits assumed): as above

The target in assay [7] is T8, aarF domain containing kinase 5 (human, UniProt Q3MIX3 1-580).
T8 construct: on protein array; also called ADCK5
T8 sequence (Q3MIX3 other isoform, or with tags, fused parts or gaps limits assumed): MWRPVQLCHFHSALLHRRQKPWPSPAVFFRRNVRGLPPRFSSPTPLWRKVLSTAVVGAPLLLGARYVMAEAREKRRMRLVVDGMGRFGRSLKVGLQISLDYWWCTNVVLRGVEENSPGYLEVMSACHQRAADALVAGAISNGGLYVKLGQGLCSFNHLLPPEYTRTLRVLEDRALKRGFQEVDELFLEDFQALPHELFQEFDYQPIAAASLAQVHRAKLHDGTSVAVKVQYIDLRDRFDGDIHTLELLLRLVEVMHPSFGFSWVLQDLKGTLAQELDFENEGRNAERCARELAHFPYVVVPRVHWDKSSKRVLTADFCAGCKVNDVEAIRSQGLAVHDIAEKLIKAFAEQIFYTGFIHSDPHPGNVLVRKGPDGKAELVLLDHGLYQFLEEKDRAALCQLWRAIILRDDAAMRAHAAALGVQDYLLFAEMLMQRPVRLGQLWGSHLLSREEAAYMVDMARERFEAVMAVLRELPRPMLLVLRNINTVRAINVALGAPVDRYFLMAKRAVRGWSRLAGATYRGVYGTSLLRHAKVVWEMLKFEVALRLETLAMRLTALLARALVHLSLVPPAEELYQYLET
Nature of the assay: protein array.

Assay [8] concerns the target T9, DIX domain containing 1, transcript variant 2 (human, UniProt Q155Q3 220-683).
T9 construct: on protein array; also called DIXDC1
T9 sequence: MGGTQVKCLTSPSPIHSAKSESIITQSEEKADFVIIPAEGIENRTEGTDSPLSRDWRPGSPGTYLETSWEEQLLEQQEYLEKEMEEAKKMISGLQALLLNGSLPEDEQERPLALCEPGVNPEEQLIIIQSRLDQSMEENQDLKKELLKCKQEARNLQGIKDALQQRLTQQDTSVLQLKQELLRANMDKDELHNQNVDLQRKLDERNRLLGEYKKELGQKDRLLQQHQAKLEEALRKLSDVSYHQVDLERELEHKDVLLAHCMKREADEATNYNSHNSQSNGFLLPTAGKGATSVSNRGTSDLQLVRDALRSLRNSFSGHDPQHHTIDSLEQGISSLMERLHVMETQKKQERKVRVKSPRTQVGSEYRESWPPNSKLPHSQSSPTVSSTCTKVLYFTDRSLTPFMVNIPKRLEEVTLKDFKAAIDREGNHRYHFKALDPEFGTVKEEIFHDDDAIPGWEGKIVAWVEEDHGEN
Kind of assay: protein array.

A further assay deals with T10, cancer/testis antigen 1A (human, UniProt P78358 1-180).
T10 construct: on protein array; also called CTAG1A
T10 sequence (P78358 whole entry): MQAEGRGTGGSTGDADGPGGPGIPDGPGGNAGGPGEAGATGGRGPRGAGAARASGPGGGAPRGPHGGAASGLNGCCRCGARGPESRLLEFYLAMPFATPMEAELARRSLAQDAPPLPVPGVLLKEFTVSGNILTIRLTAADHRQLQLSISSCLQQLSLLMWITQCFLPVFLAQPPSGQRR
Kind of assay: protein array.

T5 sequence (Q86TM3 other isoform, or with tags, fused parts or gaps limits assumed): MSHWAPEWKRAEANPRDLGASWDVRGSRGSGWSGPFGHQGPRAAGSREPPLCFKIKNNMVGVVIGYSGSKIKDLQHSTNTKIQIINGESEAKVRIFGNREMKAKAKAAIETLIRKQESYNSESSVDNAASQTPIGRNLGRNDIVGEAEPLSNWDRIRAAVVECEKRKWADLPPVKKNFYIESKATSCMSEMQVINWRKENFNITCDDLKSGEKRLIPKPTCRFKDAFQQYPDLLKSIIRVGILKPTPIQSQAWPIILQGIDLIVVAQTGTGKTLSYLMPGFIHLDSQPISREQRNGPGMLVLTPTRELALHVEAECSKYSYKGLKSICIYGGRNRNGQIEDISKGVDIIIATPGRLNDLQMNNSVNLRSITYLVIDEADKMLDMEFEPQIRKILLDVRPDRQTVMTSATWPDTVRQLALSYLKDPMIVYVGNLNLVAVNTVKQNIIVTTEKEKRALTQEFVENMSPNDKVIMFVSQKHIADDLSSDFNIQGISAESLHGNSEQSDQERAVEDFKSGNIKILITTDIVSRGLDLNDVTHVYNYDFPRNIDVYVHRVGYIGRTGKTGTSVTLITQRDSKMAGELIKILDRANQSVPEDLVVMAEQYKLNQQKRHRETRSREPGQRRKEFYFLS

B1: TCER1004 (antibody, V domains shown)
VH: VVQLVESGGGLVQPGGSLRLSCAASGFTFSSYSMNWVRQAPGKGLEWLSYVSSSGSTMYYADSVKGRFTISRDTAKNSLFLQMNSLRAEDTAVYYCAKGGPLRPFDIWGQGTLVTVSS
VL: VIQMTQSPTSLSASVGDRVTITCRASQSISSYLNWYQQKLGKAPKLLIYAASSLQSGVPSRFSGSGSGTDFTLTISSLQPEDFATYYCQQSYSTSLTFGGGTKVEIKR
notes: VH/VL only
B1: the binding result in assay [1] is “binds”.

B2: THNS1008 (antibody, V domains shown)
VH: QVQLQESGPGLVKPSQTLSLTCAVSGGSISSGGYPWSWIRQPPGKGLEWIGYISYSGSTDYNPSLKSRVTISLDTSSNQFSLNLSSLTAADTAVYYCARGAAFYYGMDVWGQGTTVTVSS
VL: DIQMTQSPSSLSASVGDRVTITCRASQSISTYLNWYQQKPGKAPKLLIYVASSLQSGVPSRFSGSGSGTDFTLTISGLQPEDFATYYCQQSYSTPYTFGQGTKLEIKR
notes: VH/VL only
Turning to B2, the binding result in assay [2] is “binds”.

B3: TBRE1052 (antibody, V domains shown)
VH: PVQLIQSGAEVRKPGASVKVSCKVSGYTLSELSLHWVRQAPGKGLEWMGTFDPEDGETVYAQKFQGRVTVTEDTSTDTAYIDLSSLKSEDTAVYYCATDGPLHTSGLDYWGQGTLVTVSS
VL: EIVLTQSPATLSLSPGERATLSCRASQSISSNLAWYQQKPGQAPRLLIYDASNRATGIPARFSGSGSGTDFTLTISSLEPEDFAVYYCQQHSNWPELTFGGGTKVEIKR
notes: VH/VL only
With B3, the binding result in assay [2] was “binds”.

B4: TLUS1001 (antibody, V domains shown)
VH: QVQLQESGPGLVKPSETLSLTCTVSGDSISSNYWSWIRQPPGKGLEWIGYIYYSGSTNYNPSLKSRVTISVDTSKNQFSVKLSSVTAADTAVYYCARYGDYSFDPWGQGTLVTVSS
VL: not shown
notes: VH/VL tied via antigen in summary, not by name in this stretch
On to B4, for which the binding result in assay [3] is recorded as “binds”.

B5: TLUS1001 (antibody, V domains shown)
VH: QVQLQESGPGLVKPSETLSLTCTVSGDSISSNYWSWIRQPPGKGLEWIGYIYYSGSTNYNPSLKSRVTISVDTSKNQFSVKLSSVTAADTAVYYCARYGDYSFDPWGQGTLVTVSS
VL: not shown
notes: detected with anti-human IgG Fc
As to B5, the binding result in [4] is “binds”.

B6: TSAR1004 (antibody, V domains shown)
VH: QVQLQESGPGLVKPSETLSLTCSVSGDSFSDYYWSWTRQSPGKGLEWLGYMFYGGSTNYNPSLKSRLTMSVDTSKKHVYLKLSSVTAADTAVYYCAASGYGDHVAYWGQGTLVTVSS
VL: DIVMTQSPDSLAVSLGERATLNCKSSQSVLSSYNNKDYLAWFQQKPGQPPQLLFYWASTRKTGVPDRFSGSGSGTDFTLTISSLQTEDVAVYYCQQYYSTPYTFGQGTKLEIK
B6: in the assay with DEAD-box helicase 53, the binding result was “binds”.

B7: TBRE1030 (antibody, V domains shown)
VH: QVQLQESGPGLVKPSQTLSLTCTVSGGSISSGGYYWSWIRQHPGKGLEWIGYIYYSGSTYYNPSLKSRVTISVDTSKNQFSLKLSSVTAADTAVYYCARDLSCSSTSCHDAFDIWGQGTMVTVSS
VL: not shown
notes: as for B5
For the molecule B7, in assay [5], the binding result was “binds”.

B8: TBRE1030 (antibody, V domains shown)
VH: QVQLQESGPGLVKPSQTLSLTCTVSGGSISSGGYYWSWIRQHPGKGLEWIGYIYYSGSTYYNPSLKSRVTISVDTSKNQFSLKLSSVTAADTAVYYCARDLSCSSTSCHDAFDIWGQGTMVTVSS
VL: not shown
notes: VH/VL only
For the molecule B8, the binding result in assay [6] was “binds”.

B9: TTES1009 (antibody, V domains shown)
VH: EVQLVESGGGLVQPGGSLRLSCAASGFTFSSYEMNWVRQAPGKGLEWVSYISSSGSTIYYADSVKGRFTISRDNAKNSLYLQMNSLRAEDTAVYYCARRGFYYYYGMDVWGQGTTVTVSS
VL: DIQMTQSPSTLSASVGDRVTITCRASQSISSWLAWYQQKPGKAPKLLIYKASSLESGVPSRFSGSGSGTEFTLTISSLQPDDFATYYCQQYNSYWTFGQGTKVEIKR
notes: as for B4
For B9, the binding result in assay [7] is “binds”.

B10: TTES1001 (antibody, V domains shown)
VH: PVQLVQSGAEVKKPGSSVQVSCKGSGGTFSEYGISWLRQAPGQGLEWIGGIIPVLGIPNYAQKFRGRVTITADESTGSAYMEVSSLRSEDTAVYYCAREGLRLARGWFHPWGQGTLVTVTS
VL: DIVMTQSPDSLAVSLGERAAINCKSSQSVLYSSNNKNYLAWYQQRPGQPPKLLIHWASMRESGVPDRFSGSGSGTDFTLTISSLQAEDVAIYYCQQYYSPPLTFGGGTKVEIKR
notes: as for B4
For B10, the binding result in [8] is “binds”.

B11: TCOL1007 (antibody, V domains shown)
VH: PVQLVESGGGVVQPGRSLRLSCAASGFTFSNYGMHWVRQAPGKGLEWVAVISDDGNDKDNADSVKGRFTISRDNSKNTLYLRMNSLRREDTAVYYCARDGFDYWGQGTLVTVSS
VL: DIVMTQTPLSMPVTPGEPASISCRSSQSLLDSDDGKTYLDWYLQKPGQSPQLLIYTVSYRASGVPDRFSGSGSGTDFTLKISRVEAEDVGVYYCMQRIEFPFTFGPGTKVDIKR
notes: VH/VL only
Regarding B11, in assay [2], the binding result is given as “binds”.

B12: TKIC1002 (antibody, V domains shown)
VH: PVQLQESGPGLVKPSETLSLTCTVSGGSISSYYWSWIRQPPGKGLEWIGYLFYSGSTNYNPSLKSRVTISVDTSKNQFSLKLGSVTAADTAVYYCARHRIFGLDVWGQGTTVTVSS
VL: EIVLTQSPGTLSLSLGERATLSCRASQSVSGSHLAWYQQKPGQAPRLLIYDASSRATGIPDRFSGSGSGTEFTLTISRLEPEDFAVYYCQQYGSSPLWFGQGTKVEIK
notes: VH/VL only
Regarding B12, in assay [7], the binding result was “binds”.

B13: TTES1010 (antibody, V domains shown)
VH: EVQLVESGGGLVQPGGSLRLSCAASGFTFSSYSMNWVRQAPGKGLEWVSYISSSSSTIYYADSVKGRFTISRDNAKNSLYLQMNSLRAEDTAVYYCASLLGGDPDYWGQGTLVTVSS
VL: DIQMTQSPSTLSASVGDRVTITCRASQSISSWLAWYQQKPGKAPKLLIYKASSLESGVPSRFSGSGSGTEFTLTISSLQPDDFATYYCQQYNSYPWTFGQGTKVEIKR
notes: as for B4
Turning to B13, the binding result in assay [8] was “binds”.

B14: TOVA1001 (antibody, V domains shown)
VH: HVQLVQSGSELKKPGASVKLSCKASGYTFTNYAMNWVRQAPGQGLEWMGWINTNTGNPTYAQGFTGRFVFSLDTSVSTAYLQISSLKAEDTALYYCARDRPGDYWGQGTLVTVSS
VL: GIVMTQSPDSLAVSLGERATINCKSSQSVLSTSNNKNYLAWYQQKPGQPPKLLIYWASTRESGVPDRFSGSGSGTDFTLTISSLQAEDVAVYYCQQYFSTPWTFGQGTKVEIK
In the case of B14, the binding result with DEAD-box helicase 53 is listed as “binds”.

B15: TMEL1034 (antibody, V domains shown)
VH: QLQLQESGPGLVKPWETLSLSCTVSGGSISSSFFYWGWIRQPPGKGLQWIGNIHYTGSTYYNPSLKSRITMSVDTSKNQFSLKLSSVTAADTAVYYCARHRVGDSPGLHYWGQGTLVTVSS
VL: SYELTQPPSVSVSPGQTARITCSGDALPKKYAFWYQQKSGQAPVLVIYEDSKRPSGIPERFSGSSSGTMATLTISGAQVEDESDYYCYSTDSSGNVWVFGGGTKLTVLG
notes: as for B4
On to B15, for which, in assay [3], the binding result is “binds”.

B16: TBLA1012 (antibody, V domains shown)
VH: LLQLVESGGGVVQPGRSLRLSCAASGFTFTRHGFHWVRQAPGKGLEWVAVISSDGRKIHYTDSVKGRFVISRDDSDNTVYLHMNSLRLGDTALYYCARDSGGTPGPYWGQGTLVTVSS
VL: DVVMTQSPLSLPVTLGQPASISCRSSQSLVHSDGNTYLNWFQQRPGQSPRRLIYMVSNRDSGVPDRFSGSGSGTDFTLKISRVEAEDVGVYYCLQGTHWPPTIGQGTKVEIE
notes: VH/VL only
In the case of B16, the binding result in the assay with cancer/testis antigen 1A was “binds”.

B17: TTHY1004 (antibody, V domains shown)
VH: PVQLQESGPGLVKPSQTLSLTCTVSGGSISSGTYYWSWIRQPAGKGLEWIGRIYASGSTNYNPSLKSRVTISVDTSKNQFSLKLTSVTAADTAVYYCARYSGSYPLGFDYWGQGTLVTVSS
VL: DIQMTQSPSSLSASVGDRVTITCRASQSISTYLNWYQQKPGMAPKLLIYAASTLQSGVPSRFSGSGSATDYTLTISSLQPEDFATYYCQQSYNTPLTFGGGTKVDIKR
notes: as for B4
In the case of B17, in the assay with cancer/testis antigen 1A, the binding result is given as “binds”.
